# T1: recombinant human TL1A (human, UniProt O95150 71-251)
# T1 construct: homotrimer; biotinylated for SPR capture; the ELISA paragraphs say only 'recombinant TL1A'; also called TNFSF15
# T1 chain: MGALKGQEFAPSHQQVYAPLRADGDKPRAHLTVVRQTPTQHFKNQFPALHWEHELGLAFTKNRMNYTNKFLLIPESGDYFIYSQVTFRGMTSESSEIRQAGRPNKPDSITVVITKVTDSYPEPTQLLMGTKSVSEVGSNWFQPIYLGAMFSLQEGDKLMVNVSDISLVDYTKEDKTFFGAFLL
# B1: TL1A-0076 (antibody, IgG1, V domains shown)
# VH: QVQLVQSGAEVKKPGASVKVSCKASGYDFTYYGISWVRQAPGQGLEWMGWISTYNDNTHYAPSLQGRVTMTTDTSTRTAYMELRSLRSDDTAVYYCARENYYGSGAYRGGMDVWGQGTTVTVSS
# VL: EIVLTQSPATLSLSPGERATLSCRASQSVSSYLAWYQQKPGQAPRLLIYDASNRATGIPARFSGSGSGTDFTLTISSLEPEDFAVYYCQQRSNWPWTFGQGTKVEIKR
# notes: IgG1/kappa variant of TL1A-0002
# B2: TL1A-0079 (antibody, IgG1, V domains shown)
# VH: QVQLVQSGAEVKKPGASVKVSCKASGYDFTYYGISWVRQAPGQGLEWMGWISTYQGNTHYARMLQGRVTMTTDTSTRTAYMELRSLRSDDTAVYYCARENYYGSGAYRGGMDVWGQGTTVTVSS
# VL: EIVLTQSPATLSLSPGERATLSCRASQSVSSYLAWYQQKPGQAPRLLIYDASNRATGIPARFSGSGSGTDFTLTISSLEPEDFAVYYCQQRSNWPWTFGQGTKVEIKR
# notes: as for B1
# B3: TL1A-0080 (antibody, IgG1, V domains shown)
# VH: QVQLVQSGAEVKKPGASVKVSCKASGYDFTYYGISWVRQAPGQGLEWMGWISTYGGNTHYARMLQGRVTMTTDTSTRTAYMELRSLRSDDTAVYYCARENYYGSGAYRGGMDVWGQGTTVTVSS
# VL: EIVLTQSPATLSLSPGERATLSCRASQSVSSYLAWYQQKPGQAPRLLIYDASNRATGIPARFSGSGSGTDFTLTISSLEPEDFAVYYCQQRSNWPWTFGQGTKVEIKR
# notes: as for B1
# B4: TL1A-0081 (antibody, IgG1, V domains shown)
# VH: QVQLVQSGAEVKKPGASVKVSCKASGYDFTYYGISWVRQAPGQGLEWMGWISAYNGNTHYARMLQGRVTMTTDTSTRTAYMELRSLRSDDTAVYYCARENYYGSGAYRGGMDVWGQGTTVTVSS
# VL: EIVLTQSPATLSLSPGERATLSCRASQSVSSYLAWYQQKPGQAPRLLIYDASNRATGIPARFSGSGSGTDFTLTISSLEPEDFAVYYCQQRSNWPWTFGQGTKVEIKR
# notes: as for B1
# B5: TL1A-0082 (antibody, IgG1, V domains shown)
# VH: QVQLVQSGAEVKKPGASVKVSCKASGYDFTYYGISWVRQAPGQGLEWMGWISAYNGNTHYAQKLQGRVTMTTDTSTRTAYMELRSLRSDDTAVYYCARENYYGSGAYRGGMDVWGQGTTVTVSS
# VL: EIVLTQSPATLSLSPGERATLSCRASQSVSSYLAWYQQKPGQAPRLLIYDASNRATGIPARFSGSGSGTDFTLTISSLEPEDFAVYYCQQRSNWPWTFGQGTKVEIKR
# notes: as for B1
# B6: TL1A-0083 (antibody, IgG1, V domains shown)
# VH: QVQLVQSGAEVKKPGASVKVSCKASGYDFTYYGISWVRQAPGQGLEWMGWISTYGGNTHYAQKLQGRVTMTTDTSTRTAYMELRSLRSDDTAVYYCARENYYGSGAYRGGMDVWGQGTTVTVSS
# VL: EIVLTQSPATLSLSPGERATLSCRASQSVSSYLAWYQQKPGQAPRLLIYDASNRATGIPARFSGSGSGTDFTLTISSLEPEDFAVYYCQQRSNWPWTFGQGTKVEIKR
# notes: as for B1
# B7: TL1A-0084 (antibody, IgG1, V domains shown)
# VH: QVQLVQSGAEVKKPGASVKVSCKASGYDFTYYGISWVRQAPGQGLEWMGWASTYNGNTHYARMLQGRVTMTTDTSTRTAYMELRSLRSDDTAVYYCARENYYGSGAYRGGMDVWGQGTTVTVSS
# VL: EIVLTQSPATLSLSPGERATLSCRASQSVSSYLAWYQQKPGQAPRLLIYDASNRATGIPARFSGSGSGTDFTLTISSLEPEDFAVYYCQQRSNWPWTFGQGTKVEIKR
# notes: as for B1
# B8: TL1A-0085 (antibody, IgG1, V domains shown)
# VH: QVQLVQSGAEVKKPGASVKVSCKASGYDFTYYGISWVRQAPGQGLEWMGWASTYNGNTHYAQKLQGRVTMTTDTSTRTAYMELRSLRSDDTAVYYCARENYYGSGAYRGGMDVWGQGTTVTVSS
# VL: EIVLTQSPATLSLSPGERATLSCRASQSVSSYLAWYQQKPGQAPRLLIYDASNRATGIPARFSGSGSGTDFTLTISSLEPEDFAVYYCQQRSNWPWTFGQGTKVEIKR
# notes: as for B1
# B9: TL1A-0086 (antibody, IgG1, V domains shown)
# VH: QVQLVQSGAEVKKPGASVKVSCKASGYDFTYYGISWVRQAPGQGLEWMGWASTYNGNTHYAPSLQGRVTMTTDTSTRTAYMELRSLRSDDTAVYYCARENYYGSGAYRGGMDVWGQGTTVTVSS
# VL: EIVLTQSPATLSLSPGERATLSCRASQSVSSYLAWYQQKPGQAPRLLIYDASNRATGIPARFSGSGSGTDFTLTISSLEPEDFAVYYCQQRSNWPWTFGQGTKVEIKR
# notes: as for B1
# B10: TL1A-0087 (antibody, IgG1, V domains shown)
# VH: QVQLVQSGAEVKKPGASVKVSCKASGYDFTYYGISWVRQAPGQGLEWMGWISAYNGNTHYAPSLQGRVTMTTDTSTRTAYMELRSLRSDDTAVYYCARENYYGSGAYRGGMDVWGQGTTVTVSS
# VL: EIVLTQSPATLSLSPGERATLSCRASQSVSSYLAWYQQKPGQAPRLLIYDASNRATGIPARFSGSGSGTDFTLTISSLEPEDFAVYYCQQRSNWPWTFGQGTKVEIKR
# notes: as for B1
# B11: TL1A-0088 (antibody, IgG1, V domains shown)
# VH: QVQLVQSGAEVKKPGASVKVSCKASGYDFTYYGISWVRQAPGQGLEWMGWISTYGGNTHYAPSLQGRVTMTTDTSTRTAYMELRSLRSDDTAVYYCARENYYGSGAYRGGMDVWGQGTTVTVSS
# VL: EIVLTQSPATLSLSPGERATLSCRASQSVSSYLAWYQQKPGQAPRLLIYDASNRATGIPARFSGSGSGTDFTLTISSLEPEDFAVYYCQQRSNWPWTFGQGTKVEIKR
# notes: as for B1
# B12: TL1A-0089 (antibody, IgG1, V domains shown)
# VH: QVQLVQSGAEVKKPGASVKVSCKASGYDFTYYGISWVRQAPGQGLEWMGWISTYNTGTHYAQKLQGRVTMTTDTSTRTAYMELRSLRSDDTAVYYCARENYYGSGAYRGGMDVWGQGTTVTVSS
# VL: EIVLTQSPATLSLSPGERATLSCRASQSVSSYLAWYQQKPGQAPRLLIYDASNRATGIPARFSGSGSGTDFTLTISSLEPEDFAVYYCQQRSNWPWTFGQGTKVEIKR
# notes: as for B1
# B13: TL1A-0090 (antibody, IgG1, V domains shown)
# VH: QVQLVQSGAEVKKPGASVKVSCKASGYDFTYYGISWVRQAPGQGLEWMGWISTYNTGTHYAPSLQGRVTMTTDTSTRTAYMELRSLRSDDTAVYYCARENYYGSGAYRGGMDVWGQGTTVTVSS
# VL: EIVLTQSPATLSLSPGERATLSCRASQSVSSYLAWYQQKPGQAPRLLIYDASNRATGIPARFSGSGSGTDFTLTISSLEPEDFAVYYCQQRSNWPWTFGQGTKVEIKR
# notes: as for B1
# B14: TL1A-0091 (antibody, IgG1, V domains shown)
# VH: QVQLVQSGAEVKKPGASVKVSCKASGYDFTYYGISWVRQAPGQGLEWMGWISTYNTVTHYAQKLQGRVTMTTDTSTRTAYMELRSLRSDDTAVYYCARENYYGSGAYRGGMDVWGQGTTVTVSS
# VL: EIVLTQSPATLSLSPGERATLSCRASQSVSSYLAWYQQKPGQAPRLLIYDASNRATGIPARFSGSGSGTDFTLTISSLEPEDFAVYYCQQRSNWPWTFGQGTKVEIKR
# notes: as for B1
# B15: TL1A-0092 (antibody, IgG1, V domains shown)
# VH: QVQLVQSGAEVKKPGASVKVSCKASGYDFTYYGISWVRQAPGQGLEWMGWISTYNTVTHYAPSLQGRVTMTTDTSTRTAYMELRSLRSDDTAVYYCARENYYGSGAYRGGMDVWGQGTTVTVSS
# VL: EIVLTQSPATLSLSPGERATLSCRASQSVSSYLAWYQQKPGQAPRLLIYDASNRATGIPARFSGSGSGTDFTLTISSLEPEDFAVYYCQQRSNWPWTFGQGTKVEIKR
# notes: as for B1
# B16: TL1A-0093 (antibody, IgG1, V domains shown)
# VH: QVQLVQSGAEVKKPGASVKVSCKASGYDFTYYGISWVRQAPGQGLEWMGWISAYNANTHYAPSLQGRVTMTTDTSTRTAYMELRSLRSDDTAVYYCARENYYGSGAYRGGMDVWGQGTTVTVSS
# VL: EIVLTQSPATLSLSPGERATLSCRASQSVSSYLAWYQQKPGQAPRLLIYDASNRATGIPARFSGSGSGTDFTLTISSLEPEDFAVYYCQQRSNWPWTFGQGTKVEIKR
# notes: as for B1
# B17: TL1A-0094 (antibody, IgG1, V domains shown)
# VH: QVQLVQSGAEVKKPGASVKVSCKASGYDFTYYGISWVRQAPGQGLEWMGWISTYNGNTHYARMLQGRVTMTTDTSTRTAYMELRSLRSDDTAVYYCARESYYGSGAYRGGMDVWGQGTTVTVSS
# VL: EIVLTQSPATLSLSPGERATLSCRASQSVSSYLAWYQQKPGQAPRLLIYDASNRATGIPARFSGSGSGTDFTLTISSLEPEDFAVYYCQQRSNWPWTFGQGTKVEIKR
# notes: as for B1
# B18: TL1A-0095 (antibody, IgG1, V domains shown)
# VH: QVQLVQSGAEVKKPGASVKVSCKASGYDFTYYGISWVRQAPGQGLEWMGWISTYNGNTHYARMLQGRVTMTTDTSTRTAYMELRSLRSDDTAVYYCARETYYGSGAYRGGMDVWGQGTTVTVSS
# VL: EIVLTQSPATLSLSPGERATLSCRASQSVSSYLAWYQQKPGQAPRLLIYDASNRATGIPARFSGSGSGTDFTLTISSLEPEDFAVYYCQQRSNWPWTFGQGTKVEIKR
# notes: as for B1
# Molecular target: T1, recombinant human TL1A
# Test: competition ELISA vs bio-TL1A-0002
# Description: For this competition ELISA assay procedure, 96-well high binding plates (Corning, product number 3590) were coated with 1 μg/mL recombinant TL1A in 100 μL/well in Phospate Buffered Saline (PBS) overnight at 4° C. Plates were then blocked in PBS+0.02% casein solution and washed with PBS+0.05% Tween-20 following standard ELISA protocol. […] Plates were washed with PBS+0.05% Tween-20 following standard ELISA protocol, and Streptavidin-HRP (Southern Biotech, product number 7100-05) diluted to 1:10,000 in assay buffer was added to plates and incubated for 25-30 minutes at room temperature. Next, the plates were washed with PBS+0.05% Tween-20 following standard ELISA protocol, and then TMB substrate (BioFX Laboratories, catalog number TMBW-0100-01) was added to plates. Reactions were stopped after approximately 5 minutes by adding 0.18 M ortho-phosphoric acid to each well and absorbance was read at 450 nm.
binder,measurement,value
B1,Bioactivity relative to TL1A-0002,1.2 fold
same,IC50,5.4 nM
B2,Bioactivity relative to TL1A-0002,1.3 fold
same,IC50,5.8 nM
B3,Bioactivity relative to TL1A-0002,1.1 fold
same,IC50,5 nM
B4,Bioactivity relative to TL1A-0002,0.9 fold
same,IC50,4.1 nM
B5,Bioactivity relative to TL1A-0002,1.2 fold
same,IC50,5.2 nM
B6,Bioactivity relative to TL1A-0002,1.5 fold
same,IC50,6.8 nM
B7,Bioactivity relative to TL1A-0002,1 fold
same,IC50,4.5 nM
B8,Bioactivity relative to TL1A-0002,1 fold
same,IC50,4.7 nM
B9,Bioactivity relative to TL1A-0002,1.1 fold
same,IC50,5 nM
B10,Bioactivity relative to TL1A-0002,1.1 fold
same,IC50,4.8 nM
B11,Bioactivity relative to TL1A-0002,1.4 fold
same,IC50,6.5 nM
B12,Bioactivity relative to TL1A-0002,1.2 fold
same,IC50,5.4 nM
B13,Bioactivity relative to TL1A-0002,1 fold
same,IC50,4.5 nM
B14,Bioactivity relative to TL1A-0002,1.2 fold
same,IC50,5.4 nM
B15,Bioactivity relative to TL1A-0002,1.2 fold
same,IC50,5.2 nM
B16,Bioactivity relative to TL1A-0002,1.3 fold
same,IC50,5.9 nM
B17,Bioactivity relative to TL1A-0002,1.2 fold
same,IC50,5.5 nM
B18,Bioactivity relative to TL1A-0002,2 fold
same,IC50,8.8 nM
